Laboratory results taken from a protein production outcome set (Wang et al. 2014).

Assay: label from the status in PepcDB records

| Sequence | protein production |
| --- | --- |
| MKFGPRRPADAIGGVTVHSLRQNGLLLKKGTTIGPAEVAALEKAGIAEIVVVQLEPGDVSEDVAAADVAGAVAGDGITVDRAFTGRANLFAGRTGVLVIDRAVVDRINAVDEAITLATLPAFKPVVEGEMVATVKLIPFGVESRLRDAAVAAAQGSALRVAPYVIKRVGVVSTLLPGLAPKVIDKTLRVTAERLAPAGAEIIAERRVAHEEAALSAAIKELLGLGADMVIVFGASAIADRRDVIPAAIGTVGGTISHFGMPVDPGNLLLVGSVSGVPVLGAPGCARSPVENGFDWVLMRLLAGLTVTRADITAMGVGGLLMEIVTRPQPRVPVAESGRNVAAIVLAAGRGTRMGGPNKLLADLNGKPLVRIVAEQALASQAARTIIVTGHQAGEVEAALYGLDLTFVHNPDFAQGIASSVKTGIAALGEDADGAIVCLGDMPLIDAALIDRMITAFDPDRGALIVVPVAEGRRGNPVLWSRRFFTELMTLGGDVGARHLIAKHGEAVTEVPVEGEAAFLDIDTPQALDEARRG | failed |
| MARRNRGVTRRERPNLLITGTPGTGKSTTASALAEATNLRYICIGDLVKEKEFYHGWDNELECHFINEDSVIDELDDAMIEGGNIVDYHGCDFFPQRWFDRVVVLRTENSVLYDRLTNSKVLIVFSQPTKAGVIQEPSLVTTFNAKCIKSYSKKHMTVMMRKLSLNYKGEAMLAKTVFPRGLLVLRSFSSVASKTLLKVGDVLRETRVFSSEDIKAYAEVSHDWNPLHFDPESARKAGFENRLVHGMLVSSMFPRIISAHFPGAVYVSQSLHFRSPVYIGDEILGLVQAIALRETKNKYIVKFSTKCFKNHNELVVIDGEATAILPNLDMLQKSPSE | failed |
| MSLINEATLAESIRRLRQGERATLAQAMTLVESRHPRHQALSTQLLDAIMPYCGNTLRLGVTGTPGAGKSTFLEAFGMLLIREGLKVAVIAVDPSSPVTGGSILGDKTRMNDLARAEAAFIRPVPSSGHLGGASQRARELMLLCEAAGYDVVIVETVGVGQSETEVARMVDCFISLQIAGGGDDLQGIKKGLMEVADLIVINKDDGDNHTNVAIARHMYESALHILRRKYDEWQPRVLTCSALEKRGIDEIWHAIIDFKTALTASGRLQQVRQQQSVEWLRKQTEEEVLNHLFANEDFDRYYRQTLLAVKNNTLSPRTGLRQLSEFIQTQYFDEGHHHHHH | not failed |
| IKSISKDYFDYLQTESKFIPLENETIEFYSPIVDYFGDSISVNISFSGDRYKLTDHGETLWNMEQLGIDLTSNKKQKKYQLLNNIVQNYSLVIENKHINFYTNRINLSQAIHDYVLAISEISYLGILKKENIKSLFKDEVMQYFLSNRKIYPNIFPEFKVEGKSKLIHSFEAVFPGEATEYVKTIKRIDKNNAKNVLFDWNDVEIHRNKNFDSNARLNIITEQQDDISEAVSTMLSQYNVEVFSFENKKQLEEKF | failed |
| MFANWLLVSVSIGYIGLLFLIAHLGGKYRNKLEAKQQTIIYALSLGVYCTSWGFLGTTAQAANHSFTFLSVYLAPIVLFVFAWPFIQRIIKTSLKLKITSIADLLSARFGKSQTLAIIITLVALIGTMPYIALQLKAIVNSYQILQETQDLPIWQIGLVVSIILAVFTIIFGIRTIDITERHPGVMIAIAFESLVKLIAFLLVGLFVSFIIYDSPMDIWELSKDQFDIEKQFEFSNLFALFGMLIIVMSAFLCLPRQFQVMFVEIKDKKTSGMARWVLPVYLLIFGFFAAVLGLAGNLNYGSSLAADAYVLFLPALDGQVWLSLFAFLGAVSAASSMVIVSTIALSTMLSNEIVFPVMFNFSRQKQQDFNHFQLQLLFIRKTLVLLVIFLSYGLLLVSPPDALSSLGEVAFGAIAQIGPALFVAFYWRRATLAGVLAGIICGFTIWTVFNLIPQLGIYAHPLENTDLPKTTVITLIGLLINVIALWLVSLGTRQSIREQMQSEFFYTDRKKIKWSLPSQPKVDIVELELLVARFIGEEKATKCFEKFHSMNQTKDNKKFNEAILFHAENTLARVLGSASAKLVTSLAISSRGMAFDQVAKLVEDNSTQQLEFSRTVLQSAIENVSEGISVIDSELKLVAWNKQYLDIFSYPEAFIYIGCPISQLIHFNLSQQGYFAKDIDLRVKKRIQYIMEGSRHNTEYKLKNGKNIRIEGSPIPGGGFVMIFSDITQYRQTEEVLKEENTDLESRVQFRTAELEQANKELALANHELIQAQTKAEQAHVKKSQYLKACSHDLLQPLSAARLFSSAISLSPRVSNEEREQIKKIDNSLEIANSLLLDLNEIARIESGNITPTIEPIEIKELFTMLANEFNALTDEYHVEFHCKMSKTYVASDITLLARIVQNFLSNAFRYAHRCDKKNQSKVLLGCRRQGNEISIQVFDNGPGIPIDKQQQVFDQFTQLNNSNVMGPKGLGLGLNIAQSLANILEHKIDLKSKPGHGCLFSVNAPMTLAPAAKEQTLPPASMSLHGVGVLCIDNEPAILDGMSKLLSAWQCQVFTAVDAQQARELYAKHEDEIDILLVDYQLDGCQDDNTIMATDMLISERNDSSCSIDPVNGIGLIKQLRAMSPYALPAILITATTGENLMALTKQHNIGYLRKIIRPLALRALMSSLLTEELAKNYSQNNT | failed |
| MALDSPVGRRLGLVLQSRSNGVGPDQLFGDSELDHRAVCVIGEKGAERLAGPERGVVGRDSLCCVHTRPYGLWPLHWPRPAAATTLSRPAILTPRTATRTCMTEATGIVGEFLTLKEGTDADLLAMQCGDFYEFFAEDAEIVADELDLKVSQKSSHGSSYPMAGVPVDDLTPYVSALVERGYRVAIADQHETENGHAREITRVVTPGTHLETGDESAQYLAAVVREASRDSGDTYGIAATDVTTGQFQVTQLDDADAGEALTELYTFGPAEILPGPELRNDDEFLDRLRERTDAALTLHDSASFEPGRASHTVREQFGSETVDSVGIGDQNVAVRAAGAVLSYVEDTGVGTLAAVTRLQAYGERDHVDLDATTQRNLELTETMQGDSSGSLFDTIDHTVTAAGGRLLQQWLQRPRRNRAELQRRQSCVAALSEAAMARERIRETLSDAYDLERLAARATSGSADARDLRAVQETLALLGQVADAVTETERLAESPLADALDGADREAADSLAAELDSALVADPPGTVRQGGLFKRGHDDDLDEIIDEHEAALEWLETLPDREKERTGITHLSVDRNKTDGYYIQVGKSETDAVPEKYQHIKTLKNSKRYTTPELDEKERDVLRLEERRHDMEYEHFQRLRARVAEHATLLQDVGRTLAELDAFASLAVHAVENDWARPAVVDGNELSIEAGRHPVVEQTTEFVPNDLYMDDDRQFLIVTGPNMSGKSTYMRQAALITLLAQVGSFVPARSATVGLVDGIFTRVGALDELAQGRSTFMVEMQELSNILHSATEESLVILDEVGRGTATFDGISIAWAATEYIVNSIQSKTLFATHYHELTALGEELPTVENVHVAVDGEPRSAGSDGDVTFLRTVRDGPTDRSYGVHVADLAGVPEPVVDRSQAVLDRLRDDKAIEIRGSEQNDGGTTQAVFDLDSGQFRDGAAQSGGAAAGSTAEPVATDGDPEHAPGEAAAEGPKGDERAASLDSETEAVLSELTELDVNETPPVELMAKVQEWQAELDDE | failed |
| MSHSIEQLSINTIRTLSIDAIEKANSGHPGMPMGAAPMAYTLWTQFMKHNPNNPTWFNRDRFVLSAGHGSMLLYSLLHLSGYDVTMDDLKNFRQWGSKTPGHPEYGHTAGVDATTGPLGQGIATAVGMAMAERHLAAKYNRDAYNIVDHYTYAICGDGDLMEGVSAEASSLAAHLQLGRLVVLYDSNDISLDGDLNRSFSESVEDRYKAYGWQVIRVEDGNDIEAIAKAIEEAKADEKRPTLIEVRTTIGFGSPNKSGKSASHGSPLGVEETKLTKEAYAWTAEQDFHVAEEVYENFRKTVQDVGETAQAEWNTMLGEYAQAYPELANELQAAMNGLLPEGWEQNLPTYELGSKAATRNSSGAVINAIAESVPSFFGGSADLAGSNKTYMNNEKDFTRDDYSGKNIWYGVREFAMGAAMNGIALHGGLKTYGGTFFVFSDYLRPAIRLAALMQLPVTYVFTHDSIAVGEDGPTHEPIEQLAALRAMPNVSVIRPADGNESVAAWRLALESTNKPTALVLTRQDLPTLEGAKDDTYEKVAKGAYVVSASKKETADVILLATGSEVSLAVEAQKALAVDGVDASVVSMPSMDRFEAQTAEYKESVLPKAVTKRFAIEMGATFGWHRYVGLEGDVLGIDTFGASAPGEKIMEEYGFTVENVVRKVKEML | not failed |
| MAKKWQQRAALRRKRISFHRSTDTTSSSTAAEKGCFVVYTSDRIRFAFPISYLSNSVIQELLKISEEEFGIPTEGPITLPFDSVFLEYLIRLVQRRMDGDTEKALITSISSTRCSLPCSFQLQEHSSTRLVF | failed |
| MRFFVFLKTLQSRSFCIFQQSFLLFFTSFFIIFVSNLCFISRGYGQNPPSLPAEPPSPQLLLPLDDLIPNDPSSAPAEPNSDSAATILEDFDAVHQSYAQRTEQRKEAEILRLLKELKFCADVEKARKISQQLQRLWSQSGSETIDLLMLWAENAINADNYGLALDYIDNALALLPTYAEGWIRRAWVHIQLSDFKLAMLDLNHALKLEPRNYIAFFELGITMEATERPKLALKAYETALEYYPQMQKVQKRIEELLDKQSPQAL | failed |
| MLELCSIASGSSGNCICVGTDDCHVLIDAGISGKKIENGLNEFDMTATDMHGILVTHEHIDHIAGLGVMARRYHMPIYATKATIGAIKCTKSVGNIDDELFHPIEAGVDFTIGDIEFEPLHISHDAADPVAYRFKNENHAMAVVTDLGTYDDALVSKLQNLDGLLLEANHDINMLQTGAYPYPLKRRIMGDSGHLSNERSGQLLCELLHDKFGSVILGHLSKENNYEKLAYEAVRLEVTMGDNPYKASDFPMYVAKRDRASDRIAVE | failed |
| MGSVQLSGSGLVASLPPNHSFSHKTKLNKPNSYFFRSKHNAARTKTVRAISTAPASQPPAADEPDEPPAVDFAFVHSVLLPDGTPDVHWRRANGGQKLRDIMLDSNIELYGPYSKPLSNCAGVGTCATCMVEIVNGKELLNPRTDIEKEKLKRKPKNWRLACQTNVGNPDSTGLVVIQQLPEWKAHEWNIPKNIPNDDDLETST | failed |
| LPIIVKWGGQEYSVTTLSKDDTVLDLKQFLKTLTGVLPERQKLLGLKVKGKPAENDVKLGALKLKPNTKIMMMGTRE | not failed |
| MKPKLILMSHGRMAEETLASTQMIVGELADAAIVSMTAEDGLSGTQAKLAAILKEAGNVPTLVLADLKGGTPCNVAMMAMGTYPQLRVVAGLNLAMAIEAAVSPVENVDELAAYLTQIGQSAVTTIDLPELTDEEEFEE | not failed |
| MEKYLRSGTMFVVLAFILWGLTPLYYQYLSGGNLAQILIYRVFWSIPLLLAVRLLFRQRTRFHDAWKDKKSFFFCMIAGLLMIVSWSSFIYALTHHLVLDASLGYFINPLFVIALGCIFLKEKLSLFQAIAVFSGVCGLTFQIIMLRHFPALALTMGLSFALYGLARKFIHYDVMTSITIETLWALPVSLLIFLFSDSGPIISANTPFFLYVMTAPVTIIPLVLFAIALNHTSLIVTGLAQYIEPSLQFLLAIMIFGEHINYAELLCFCAVWFGLFLCISENLYSHYLRARLKPVFGRVQRFFR | failed |
| MSRQFIIQLFLALLLCCLTITFSSIAKSAETTSTDDATDLVVAQKIIKNQQQTEKSSSASAVAVQQPQIANDMADGQSIRNLPSLNEPVIDQANLLSSEQRQALSDQIRQLYQTGKAQMAVVIVPTTGQEDIFDYAMRVGEKWQLGSAKRDNGILMAIAVNDRRIQILTGYGLEGVLPDIVVGRIIRDQITPYFKQAQYAQGIQSGVNEIEKIVNMDPEIAQQAAQDLKQRQEQALHEQQARSQMMVYSLIIVVVGIFASYIVGNRLSAATAGVAGIAAGVISGVGLITSLLIGLGIFLLLITSLAQLILQIFASGGGRGGGGGFGGGGGGGYSGGGGSFGGGGASGSW | failed |
| MVSLTKRCIAEFIGTFILVFFGAGSAAVTLMIASGGTSPNPFNIGIGLLGGLGDWVAIGLAFGFAIAASIYALGNISGCHINPAVTIGLWSVKKFPGREVVPYIIAQLLGAAFGSFIFLQCAGIGAATVGGLGATAPFPGISYWQAMLAEVVGTFLLMITIMGIAVDERAPKGFAGIIIGLTVAGIITTLGNISGSSLNPARTFGPYLNDMIFAGTDLWNYYSIYVIGPIVGAVLAALTYQYLTSE | not failed |
